In the supplement of paper PMC9876800:

Test system: peptide library, one residue held at a place counted from the S/T acceptor
Assay: relative phosphorylation of the sub-library (ratio to the mean residue at this position); higher = residue favoured
Summary of the method: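 Relative sub-library phosphorylation, a ratio to the mean residue at that position, was obtained by phosphorimaging and densitometry of spots on streptavidin membranes. Before capture, purified recombinant kinases were incubated for 90 min under kinase-specific conditions with 50 μM biotinylated degenerate peptide sub-libraries and 50 μM ATP spiked with γ-32P-ATP. Each sub-library fixed one residue at one position around a central Ser/Thr.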

Sequence of VRK2, construct: Full length, human (Q86Y07 whole entry, looked up): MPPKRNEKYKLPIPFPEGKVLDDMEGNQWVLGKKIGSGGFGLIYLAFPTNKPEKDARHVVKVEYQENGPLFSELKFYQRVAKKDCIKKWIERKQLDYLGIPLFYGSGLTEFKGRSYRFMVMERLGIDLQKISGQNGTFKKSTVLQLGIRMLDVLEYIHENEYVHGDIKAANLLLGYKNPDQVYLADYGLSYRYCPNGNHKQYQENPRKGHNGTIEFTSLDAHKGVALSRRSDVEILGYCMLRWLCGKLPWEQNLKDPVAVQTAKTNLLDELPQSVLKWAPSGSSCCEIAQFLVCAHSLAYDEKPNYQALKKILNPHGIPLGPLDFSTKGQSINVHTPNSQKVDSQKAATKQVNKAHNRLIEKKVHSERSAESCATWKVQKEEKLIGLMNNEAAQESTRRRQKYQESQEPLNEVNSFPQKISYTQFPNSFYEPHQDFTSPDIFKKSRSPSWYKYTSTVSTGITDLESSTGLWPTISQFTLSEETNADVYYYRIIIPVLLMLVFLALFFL

VRK2, construct: Full length, human (from UniProt Q86Y07)
relative phosphorylation
Conditions	at +1	at +2	at +3	at +4	at -1	at -2	at -3	at -4	at -5
A fixed	0.906	0.925	0.998	1.07	0.943	1	1.06	1.12	1.08
D fixed	0.579	0.622	0.675	0.977	0.788	0.836	0.812	0.845	0.97
E fixed	0.659	0.575	0.629	0.791	0.67	0.804	0.829	0.917	0.862
F fixed	0.883	1.23	1.05	1.04	0.86	0.978	0.971	0.957	0.974
G fixed	1.02	1.11	1.15	1.17	0.959	1.58	1.23	1.24	1.15
H fixed	0.842	0.985	1.28	1.14	1.39	1.04	1.12	1.04	1.17
I fixed	1.23	1.34	0.907	0.881	1.03	0.824	0.927	0.875	0.866
K fixed	0.949	0.924	0.875	0.887	1.04	0.919	0.881	0.945	0.979
L fixed	0.796	1.33	0.896	0.937	1.15	1.01	0.933	0.875	0.866
M fixed	1.01	1.27	0.872	0.954	1.02	1.16	0.98	0.96	0.885
N fixed	0.759	0.726	1.05	0.979	0.956	0.966	0.985	0.917	0.906
P fixed	1.15	0.703	0.759	1.03	1.1	1.08	1.27	1.22	1.16
Q fixed	1.13	0.873	0.875	0.905	0.914	0.969	0.878	0.887	0.922
R fixed	1.57	0.836	1.37	0.937	1.06	1.06	1.06	1.04	1.05
V fixed	1.53	1.07	0.935	0.912	1.22	0.877	0.936	0.996	0.974
W fixed	1.04	1.3	1.6	1.32	0.876	0.964	1.06	1.11	1.07
Y fixed	0.948	1.17	1.09	1.07	1.03	0.935	1.06	1.06	1.11
pThr fixed	0.648	0.686	0.733	1.08	0.83	0.792	0.923	1	1.01
pTyr fixed	0.826	0.883	0.914	1.4	0.861	0.8	0.982	1.02	0.981
